Laboratory results taken from the RNAGym collection of RNA variant scans (doi:10.1073/pnas.2313332121).
Variants at the floor of the assay were thinned out.

B1: TPR 5TU (parent)
chain: GGAUCUUCUCGAUCUAACAAAAAAGACAAAUCUGCCACAAAGCUUGAGAGCAUCUUCGGAUGCAGAGGCGGCAGCCUUCGGUGGCGCGAUAGCGCCAACGUUCUCAACUAUGACACGCAAAACGCGUGCUCCGUUGAAUGGAGUUUAUCAUG

Variants of: B1
Assay: polymerase ribozyme fitness, log enrichment relative to wild type (log ratio); higher = more active; in vitro selection for triplet polymerase activity
Outline: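 Only genotypes with ≥10 input reads and ≥1 read per output were kept after Illumina sequencing of input and output libraries. These libraries were PCR-built, transcribed mutants of each subunit of a heterodimeric triplet polymerase ribozyme, each put through one triplicate in vitro selection round with frozen incubation at −7 °C, gel excision of extended constructs, streptavidin-bead capture and RT-PCR. Fitness is a logarithmic ratio of genotype enrichment to wild-type enrichment, from inverse-variance-weighted replicate averages, with the logarithm in base 2.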

Variant | polymerase ribozyme fitness (log ratio)
A41U C57G C123A | -2.99
G42C G84A A122U | ≤ -4.2
G42C U61A C75G C93A | ≤ -4.2
G46A U56A G83U | -2.27
C43U C54A C79U A91U A142U G143A | ≤ -4.2
U45A U61A | -4.16
A41U C51U C85A A115U A142U | ≤ -4.2
G46A C54A C57G G74U C87A A121G | ≤ -4.2
G46A C125A U134C | -0.78
A41U G46A U61A G84U C105U C118U | -3.26
U44A A47C C57U G128C | ≤ -4.2
G42C G86U A150U | ≤ -4.2
U44A C95A | -4.11
U44A C95U | -3.87
U44G | -3.7
U44A | -3.72
U44C | -1.11
G46A A49G G50A A52U C96U C123G U139A G143C | ≤ -4.2
U44G U45G A97C | ≤ -4.2
G42C U56A C79A | ≤ -4.2
C43A U44G U45A | ≤ -4.2
U45G G83C G117A | -1.29
G42C C75G | ≤ -4.2
U44G C54U C87U A91U G141C G143C | ≤ -4.2

Variant | polymerase ribozyme fitness (log ratio)
G42U A98G U139C | ≤ -4.2
U44A G86C A120C U146C | ≤ -4.2
C43A U56A G67A G88A G112C C114U | ≤ -4.2
G42A U61A G86A | ≤ -4.2
U45A C87U | -3.28
U45G G70A G92U G94A C116G G152U | ≤ -4.2
C43A C93G G133A | ≤ -4.2
A41U C96U A122C | -1.02
U45A G50C C54G G67A C87A A91U A115C | ≤ -4.2
U45A G83A A121U G141C U148G | ≤ -4.2
C43G U53A G81U U82C | ≤ -4.2
G46A A49C G71U G86A C96U A97U | ≤ -4.2
A41U C54A C93A G126U | ≤ -4.2
U44G G92C | ≤ -4.2
G42U U55G G59A G88U C96G A98G | ≤ -4.2
U44A C57G G70C C96U A107U C149G A150C | ≤ -4.2
U44A G50U C75G C79U C87A C125U | ≤ -4.2
C43U C87U | -3.73
G46A A49C G59C U61A G86U | ≤ -4.2
G42C U53G G71A G92C C105G A137G | ≤ -4.2
U45A C87U C132G U139C G143A U145G | ≤ -4.2
A41U G58A A60U C93G | ≤ -4.2
U44A G94A C116U G152U | -4.16
U44A A137U | -3.68

Variant | polymerase ribozyme fitness (log ratio)
A41U A49G G58C G92A C95A C123A | ≤ -4.2
G46C A60U | -1.74
U45G G50C C57A G59A C75U G94C A106U A107U | ≤ -4.2
U44A A66U C85A | ≤ -4.2
U45A C79U C103A C118U | ≤ -4.2
U45A A49U C75A G83C C87G G117U U127A U139A G152U | ≤ -4.2
U44G G48A G83C | ≤ -4.2
U45A G84A U148A | ≤ -4.2
A41U C99A A106U C118A A119G U134C | ≤ -4.2
U45A C76A C85A | ≤ -4.2
A41U G48U C57G C85U A120U | -3.4
C43U A147U | -4.06
A41U G46A G59A G86C | ≤ -4.2
U45G G92C | -2.2
U45C A49C G70C G83C A137C U144C C149U | ≤ -4.2
G42A C54G C95U A107U C118G | ≤ -4.2
U44C U56A | -3
A41U A52U U55C A66U | ≤ -4.2
G42C G133C G143C | ≤ -4.2
A41U C123G | -1.42
U44A G70C G117A G136U | ≤ -4.2
A41U A52U C57U U61C | ≤ -4.2
U45C U56A A64C G74A G94C C114U A115U | ≤ -4.2
G42U C63U G68A C95U G112U U146G | ≤ -4.2

Variant | polymerase ribozyme fitness (log ratio)
U44A C72A C87U C99G U135A | ≤ -4.2
G46A G67U C87A C103G U111C G140A | ≤ -4.2
G46A C51A A98G C125U | ≤ -4.2
C43U G50A G80C C95A A121U A150C | ≤ -4.2
A41U U56A G84U C118A C125G | -4.09
C43U C54U G140U | ≤ -4.2
U44G U55A A91U G141C | ≤ -4.2
A41U A49U | -2.28
G46A G124C | -1.46
U45A G84U | ≤ -4.2
G46A C57U G58C C76A C96A U101C A106U | ≤ -4.2
G42C G48U U61A A110U | ≤ -4.2
U45G G46A A64U G71U G81A A89G A142G | ≤ -4.2
G42A U55A C85U A97U G140C | ≤ -4.2
U44A U56A A64C A91U C105U C108G A110C U135G | ≤ -4.2
C43U G71A U82A C95A A97U C103A G126A C149U | ≤ -4.2
A41U G92A | -3.1
C43G A97U C123U C125A U148G | ≤ -4.2
U44A A60G G67A G92U C105A | ≤ -4.2
G46C A47U U53A C85U U130C A150G | ≤ -4.2
U45G A47U U56A G67C A89U C96A A97G A138C | ≤ -4.2
U45A G48C G50C U53A U56A U61G C105G A119G G136U | ≤ -4.2
G46A G92A | -2.92
G46A | -0.076

Variant | polymerase ribozyme fitness (log ratio)
G46C | -0.9
C43G A47C U104G | ≤ -4.2
A41U G88C | ≤ -4.2
A41U G86U | -1.92
U44A A47C U56A G84C C87G | ≤ -4.2
U45C C108G | ≤ -4.2
U45G U55G C76U G84A | -3.76
C43A C54U G71C C103U A115U G117U | ≤ -4.2
U45A G59C C85U G86A G92U U146G | ≤ -4.2
A41U C85U A122G | -1.39
G42C G80C G86U C118U A121G A150G | ≤ -4.2
G42C A60G C79A C87U C105G C118A G124C | ≤ -4.2
G46A G67A C87A A97C G143C | ≤ -4.2
C43U U45G G46C A49U U82A A89U C108G | ≤ -4.2
C43U A119G | ≤ -4.2
U45A G48U G50C C85A C87A C95A U145C | ≤ -4.2
G42C G46A C75G A91G U102G G133U G152A | ≤ -4.2
A41U G42A U44C A64U C76G C96U A107U | ≤ -4.2
G42U G92C | -3.85
C43U C96A C116G A137U | ≤ -4.2
G42A G62A G65U G136U | ≤ -4.2
G46C G50U G84U A121C G124U | -3.31
C43U G58A G86A U90G U144A | ≤ -4.2
G42C U55A | -4.09

Variant | polymerase ribozyme fitness (log ratio)
G42U G59A | ≤ -4.2
A41U C131G | ≤ -4.2
U45G A49C C63G G84A G141C | ≤ -4.2
U44A A49C C54G C57U G58C C95G C96U | ≤ -4.2
U45G G94U G100C A150C | ≤ -4.2
C43U U45A G86A A115C C118G | ≤ -4.2
A41U U55G | -0.663
U45A U53C C57U C85A C96A C123U C125A A142C | ≤ -4.2
G46A G50C U55A U56A C87U G88U C125A G136A | ≤ -4.2
G42U C57G G58A C85G | ≤ -4.2
C43G C85U C99U A120C G128U A147U | ≤ -4.2
C43U C69U A91C A137C | ≤ -4.2
G46C C69A G81A | -1.82
G42C C43U A60G C87A C108G A121G A142C | ≤ -4.2
G42A G46U U82A A121U | -4.16
G42C U56A C85U C95A U127C G143U | ≤ -4.2
A41U | -0.621
U44A C95U A97U | ≤ -4.2
G46C C85G G88A C118U U144G | ≤ -4.2
G46C C85U | -1.16
G46A A47G C72A C108U U144A | ≤ -4.2
U44A U45A A47C G86A U130G | ≤ -4.2
G42C C95U | -4.14
U45A A49G C57A U61G G68U C114U A150U | ≤ -4.2

Variant | polymerase ribozyme fitness (log ratio)
U45A A91U | -3.74
U45A A91G | -4.12
G46C A47C G48A U82C | ≤ -4.2
U44G C57U A91U U109C | ≤ -4.2
A41U G70A | -3.15
G46A G50C C79A G84U C95U A115C | ≤ -4.2
G46A G86A C87G U104G C116U C149U | ≤ -4.2
U45A A106C | -0.488
U44C A98G | -3.97
C43U C85G G88A C93G A97U C125A C132G G140C | ≤ -4.2
G42U C85G G86C U90G | ≤ -4.2
G42A C79U U139A U145A C149G | ≤ -4.2
A41U U77A | ≤ -4.2
U44G U45A A47C C54A C57U U61A C93U | ≤ -4.2
C43U G80A A115G | ≤ -4.2
G46A U53G U56A A91C U104G G128U U146C | ≤ -4.2
G42A G48A U53A C76A C93G | ≤ -4.2
G46C C54U | -0.821
U44A C93U A120G | -4.11
G42C A52G U55A U56A G68A | ≤ -4.2
G42U U55A | -4.17
U44A A107U | -0.956
G42A A49C G62C U77C G88A C96A C132G | ≤ -4.2
